Measurements published in article PMC7954794, “Protein context shapes the specificity of SH3 domain-mediated interactions in vivo” (Nature Communications, 2021).

Test system: growth of yeast strains under 51 stress conditions
Experiment: Growth assays in 51 stress conditions (Fig. 1E-F, S2D, S5B)
Format: cell-based, Saccharomyces cerevisiae
Design: key to Growth (Fig. S2D) / growth of ABP1 SH3-swapped strains in stress condition: log2 colony size, average of median per strain (growth score)
Conditions: FigS2D
Method in brief: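 Yeast WT, SH3-deleted, KO, SH3-swapped and SH3-shuffled strains pinned in 1536 format, 12 replicates each; pregrown on YPD 2 days at 30 °C, then replicated onto 51 media at 37 °C and imaged every 2 h. Growth score = mean of per-plate median log2 colony size at 74 h.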

B1: SHO1 (protein, UniProt P40073 1-367, looked up)
High osmolarity signaling …: MSISSKIRPTPRKPSRMATDHSFKMKKFYADPFAISSISLAIVSWVIAIGGSISSASTNESFPRFTWWGIVYQFLIICSLMLFYCFDLVDHYRIFITTSIAVAFVYNTNSATNLVYADGPKKAAASAGVILLSIINLIWILYYGGDNASPTNRWIDSFSIKGIRPSPLENSLHRARRRGNRNTTPYQNNVYNDAIRDSGYATQFDGYPQQQPSHTNYVSSTALAGFENTQPNTSEAVNLHLNTLQQRINSASNAKETNDNSNNQTNTNIGNTFDTDFSNGNTETTMGDTLGLYSDIGDDNFIYKAKALYPYDADDDDAYEISFEQNEILQVSDIEGRWWKARRANGETGIIPSNYVQLIDGPEEMHR
growth of ABP1 SH3-swapped strains in stress condition (Bathophenanthroline.0.1uM): 10.8666 | growth of ABP1 SH3-swapped strains in stress condition (Bathophenanthroline.10uM): 10.6802 | growth of ABP1 SH3-swapped strains in stress condition (Bathophenanthroline.1uM): 10.8165 | growth of ABP1 SH3-swapped strains in stress condition (CaCl2.100mM): 10.8196 | growth of ABP1 SH3-swapped strains in stress condition (CaCl2.250mM): 10.7666 | growth of ABP1 SH3-swapped strains in stress condition (CaCl2.500mM): 10.33 | growth of ABP1 SH3-swapped strains in stress condition (Caffein.10mM): 9.975 | growth of ABP1 SH3-swapped strains in stress condition (Caffein.2mM): 10.938 | growth of ABP1 SH3-swapped strains in stress condition (CdCl2.100uM): 9.34 | growth of ABP1 SH3-swapped strains in stress condition (CdCl2.10uM): 10.884 | growth of ABP1 SH3-swapped strains in stress condition (CdCl2.50uM): 9.827 | growth of ABP1 SH3-swapped strains in stress condition (CuSO4.1mM): 10.4931 | growth of ABP1 SH3-swapped strains in stress condition (CuSO4.5mM): 7.806 | growth of ABP1 SH3-swapped strains in stress condition (Cycloheximide.0.05.uM): 11.0905 | growth of ABP1 SH3-swapped strains in stress condition (Cycloheximide.0.2.uM): 10.7035 | growth of ABP1 SH3-swapped strains in stress condition (Cycloheximide.0.5.uM): 10.0394 | growth of ABP1 SH3-swapped strains in stress condition (DMSO.2.): 11.0205 | growth of ABP1 SH3-swapped strains in stress condition (DMSO.6.): 9.808 | growth of ABP1 SH3-swapped strains in stress condition (DMSO.8.): 8.962 | growth of ABP1 SH3-swapped strains in stress condition (Ethanol.2.): 10.7684 | growth of ABP1 SH3-swapped strains in stress condition (Ethanol.6.): 10.4049 | growth of ABP1 SH3-swapped strains in stress condition (Ethanol.8.): 10.2263 | growth of ABP1 SH3-swapped strains in stress condition (Galactose.2.): 10.8154 | growth of ABP1 SH3-swapped strains in stress condition (Glycerol.2.): 9.771 | growth of ABP1 SH3-swapped strains in stress condition (Hydroxyurea.25mM): 10.7838 | growth of ABP1 SH3-swapped strains in stress condition (Hygromycin.190uM): 10.9371 | growth of ABP1 SH3-swapped strains in stress condition (Hygromycin.19uM): 10.9563 | growth of ABP1 SH3-swapped strains in stress condition (Hygromycin.95uM): 10.9936 | growth of ABP1 SH3-swapped strains in stress condition (MMS.0.004.): 10.9851 | growth of ABP1 SH3-swapped strains in stress condition (MMS.0.02.): 10.7181 | growth of ABP1 SH3-swapped strains in stress condition (MMS.0.04.): 10.0309 | growth of ABP1 SH3-swapped strains in stress condition (Menadione.100uM): 10.5941 | growth of ABP1 SH3-swapped strains in stress condition (Menadione.200uM): 10.4073 | growth of ABP1 SH3-swapped strains in stress condition (Menadione.50uM): 10.7963 | growth of ABP1 SH3-swapped strains in stress condition (NaCl.0.25M): 10.8224 | growth of ABP1 SH3-swapped strains in stress condition (NaCl.1M): 9.702 | growth of ABP1 SH3-swapped strains in stress condition (Nitroquinoline.10uM): 10.7342 | growth of ABP1 SH3-swapped strains in stress condition (Nitroquinoline.50uM): 10.7229 | growth of ABP1 SH3-swapped strains in stress condition (Nystatin.0.01uM): 11.0733 | growth of ABP1 SH3-swapped strains in stress condition (Nystatin.0.1uM): 11.0089 | growth of ABP1 SH3-swapped strains in stress condition (Raffinose.2.): 11.0381 | growth of ABP1 SH3-swapped strains in stress condition (Rapamycin.10nM): 9.786 | growth of ABP1 SH3-swapped strains in stress condition (Rapamycin.50nM): 9.424 | growth of ABP1 SH3-swapped strains in stress condition (SC.pH3): 10.389 | growth of ABP1 SH3-swapped strains in stress condition (SC.pH6): 11.0143 | growth of ABP1 SH3-swapped strains in stress condition (SDS.0.01.): 10.9726 | growth of ABP1 SH3-swapped strains in stress condition (SDS.0.02.): 10.9605 | growth of ABP1 SH3-swapped strains in stress condition (SDS.0.05.): 10.8495 | growth of ABP1 SH3-swapped strains in stress condition (Sorbitol.10mM): 10.9902 | growth of ABP1 SH3-swapped strains in stress condition (Sorbitol.1mM): 11.0334 | growth of ABP1 SH3-swapped strains in stress condition (Sorbitol.5mM): 10.9353

B2: YSC84 (protein, UniProt P32793 1-468, looked up)
Protein YSC84: MGINNPIPRSLKSETKKAAKVLRSFVKPNQVFGADQVIPPYVLKRAKGLAIITVLKAGFLFSGRAGSGVIVARLKDGTWSAPSAIAMAGAGAGGMVGVELTDFVFILNSEEAVRSFSEFGTITLGGNVSVSAGPLGRSAEAAASASTGGVSAVFAYSKSKGLFAGVSVEGSAILERREANRKFYGDNCTSKMILSGRVKVPPAADPLLRILESRAFNFTRHDHDDNASGDDFYDDGQYSDNTSHYYDDIPDSFDSTDESSTRPNTRSSRRRGMSLGSRSRYDDDYDDDGYGRGRGYGDFDSEDEDYDYGRSPNRNSSRNRGPQIDRGTKPRANTRWEDDLYDRDTEYSRPNHSGRDYDNTRGNRRGYGRERGYSLGHGPTHPSNMSNVDDLSHKMSKTGLGNESTATNSATPTAVALYNFAGEQPGDLAFKKGDVITILKKSDSQNDWWTGRTNGKEGIFPANYVRVS
growth of ABP1 SH3-swapped strains in stress condition (Bathophenanthroline.0.1uM): 10.863 | growth of ABP1 SH3-swapped strains in stress condition (Bathophenanthroline.10uM): 10.6791 | growth of ABP1 SH3-swapped strains in stress condition (Bathophenanthroline.1uM): 10.8306 | growth of ABP1 SH3-swapped strains in stress condition (CaCl2.100mM): 10.8211 | growth of ABP1 SH3-swapped strains in stress condition (CaCl2.250mM): 10.7492 | growth of ABP1 SH3-swapped strains in stress condition (CaCl2.500mM): 10.2924 | growth of ABP1 SH3-swapped strains in stress condition (Caffein.10mM): 10.0875 | growth of ABP1 SH3-swapped strains in stress condition (Caffein.2mM): 11.0461 | growth of ABP1 SH3-swapped strains in stress condition (CdCl2.100uM): 9.612 | growth of ABP1 SH3-swapped strains in stress condition (CdCl2.10uM): 10.8942 | growth of ABP1 SH3-swapped strains in stress condition (CdCl2.50uM): 9.965 | growth of ABP1 SH3-swapped strains in stress condition (CuSO4.1mM): 10.4219 | growth of ABP1 SH3-swapped strains in stress condition (CuSO4.5mM): 8.049 | growth of ABP1 SH3-swapped strains in stress condition (Cycloheximide.0.05.uM): 11.0738 | growth of ABP1 SH3-swapped strains in stress condition (Cycloheximide.0.2.uM): 10.6488 | growth of ABP1 SH3-swapped strains in stress condition (Cycloheximide.0.5.uM): 10.1375 | growth of ABP1 SH3-swapped strains in stress condition (DMSO.2.): 11.0761 | growth of ABP1 SH3-swapped strains in stress condition (DMSO.6.): 9.8918 | growth of ABP1 SH3-swapped strains in stress condition (DMSO.8.): 9.375 | growth of ABP1 SH3-swapped strains in stress condition (Ethanol.2.): 10.7982 | growth of ABP1 SH3-swapped strains in stress condition (Ethanol.6.): 10.2832 | growth of ABP1 SH3-swapped strains in stress condition (Ethanol.8.): 10.0513 | growth of ABP1 SH3-swapped strains in stress condition (Galactose.2.): 10.753 | growth of ABP1 SH3-swapped strains in stress condition (Glycerol.2.): 9.905 | growth of ABP1 SH3-swapped strains in stress condition (Hydroxyurea.25mM): 10.7776 | growth of ABP1 SH3-swapped strains in stress condition (Hygromycin.190uM): 10.9721 | growth of ABP1 SH3-swapped strains in stress condition (Hygromycin.19uM): 10.9865 | growth of ABP1 SH3-swapped strains in stress condition (Hygromycin.95uM): 11.0398 | growth of ABP1 SH3-swapped strains in stress condition (MMS.0.004.): 10.997 | growth of ABP1 SH3-swapped strains in stress condition (MMS.0.02.): 10.758 | growth of ABP1 SH3-swapped strains in stress condition (MMS.0.04.): 10.0132 | growth of ABP1 SH3-swapped strains in stress condition (Menadione.100uM): 10.5944 | growth of ABP1 SH3-swapped strains in stress condition (Menadione.200uM): 10.563 | growth of ABP1 SH3-swapped strains in stress condition (Menadione.50uM): 10.853 | growth of ABP1 SH3-swapped strains in stress condition (NaCl.0.25M): 10.8517 | growth of ABP1 SH3-swapped strains in stress condition (NaCl.1M): 9.6266 | growth of ABP1 SH3-swapped strains in stress condition (Nitroquinoline.10uM): 10.6185 | growth of ABP1 SH3-swapped strains in stress condition (Nitroquinoline.50uM): 10.6333 | growth of ABP1 SH3-swapped strains in stress condition (Nystatin.0.01uM): 10.9762 | growth of ABP1 SH3-swapped strains in stress condition (Nystatin.0.1uM): 10.9958 | growth of ABP1 SH3-swapped strains in stress condition (Raffinose.2.): 11.0249 | growth of ABP1 SH3-swapped strains in stress condition (Rapamycin.10nM): 9.871 | growth of ABP1 SH3-swapped strains in stress condition (Rapamycin.50nM): 9.5402 | growth of ABP1 SH3-swapped strains in stress condition (SC.pH3): 10.4227 | growth of ABP1 SH3-swapped strains in stress condition (SC.pH6): 10.9991 | growth of ABP1 SH3-swapped strains in stress condition (SDS.0.01.): 11.0315 | growth of ABP1 SH3-swapped strains in stress condition (SDS.0.02.): 11.0179 | growth of ABP1 SH3-swapped strains in stress condition (SDS.0.05.): 10.9653 | growth of ABP1 SH3-swapped strains in stress condition (Sorbitol.10mM): 10.9675 | growth of ABP1 SH3-swapped strains in stress condition (Sorbitol.1mM): 11.0498 | growth of ABP1 SH3-swapped strains in stress condition (Sorbitol.5mM): 10.8766
